One assay has as its target hybridoma 2.03. The assay is described as follows: competition ELISA; signal of 2.03 on plate-bound Pep2-0 (competitor) with this free peptide; low = inhibited. (In general: An ELISA detects its analyte on a solid surface through an enzyme-linked reagent.)
The target of the next assay is hybridoma 2.11. The assay is described as follows: competition ELISA; signal of 2.11 on plate-bound Pep2-0 (competitor) with this free peptide; low = inhibited.

B1: Pep1-1 (peptide)
peptide: Ac-HSLFHPEDTG-biotin
Take B1: the Maximum Reactivity in the assay with hybridoma 2.03 was 0.382; with hybridoma 2.11, 1.48.

B2: Pep1-2 (peptide)
peptide: Ac-SLFHPEDTGQ-biotin
Regarding B2, the Maximum Reactivity came out at 0.329 with hybridoma 2.03 and 1.49 with hybridoma 2.11.
